Patent publication US20120231006A1 (Amgen, published 2012)

Assays:
human Orai1 [1] = molecular target: T1, human Orai1 (human, UniProt Q96D31 1-301); test: cell-based or functional assay
human Orai1 [2] = molecular target: T1, human Orai1; test: FACS Kd, AM1-CHO/hOrai1/hSTIM1-YFP cells
Method: The equilibrium plates were centrifuged at 500 g for 3 minutes and cell pellets were washed twice with 200 μL of ice cold FACS buffer (1×D-PBS+2% FBS). The cells were then incubated with a secondary antibody, goat anti-human Fc Cy5 at 5 μg/mL and 100 μL per well for 1 h on ice in the dark. Following the incubation, the cells were washed twice with 200 μL of ice-cold FACS buffer before flow cytometry analysis. The GeoMean values gated on live cell population measure the bound [Ab]. The inverse of the GeoMean values that reflects theoretical free [Ag] in the equilibrium solution was then calculated. The inverse values of the GeoMean read were used in KinExA® Pro software for analysis and Kd calculation for each antibody. The free [Ag] measure was plotted against the starting concentration of titrating component and from these plots at two different cell concentrations the Kd was obtained from curve fitting using n-curve analysis in KinExA Pro software. […] Shown in Table 14 (below) are the equilibrium dissociation constant (Kd) values of invented mAbs determined by FACS Kd measurement.

T1 sequence (Q96D31 whole entry): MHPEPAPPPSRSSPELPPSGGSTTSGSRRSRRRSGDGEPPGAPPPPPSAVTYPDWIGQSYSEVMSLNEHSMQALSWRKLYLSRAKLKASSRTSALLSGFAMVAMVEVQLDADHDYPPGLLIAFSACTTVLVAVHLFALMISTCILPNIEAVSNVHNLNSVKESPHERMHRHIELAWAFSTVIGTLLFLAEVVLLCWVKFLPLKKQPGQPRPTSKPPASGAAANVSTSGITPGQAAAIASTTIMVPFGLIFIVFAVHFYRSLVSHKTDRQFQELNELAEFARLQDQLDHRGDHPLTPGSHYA

| Binder | IC50 IFN-γ, whole blood Donor A, recombinant mAb (human Orai1 [1]) | IC50 IFN-γ, whole blood Donor B, recombinant mAb (human Orai1 [1]) | IC50 IL-2, whole blood Donor A, recombinant mAb (human Orai1 [1]) | IC50 IL-2, whole blood Donor B, recombinant mAb (human Orai1 [1]) | Kd (human Orai1 [2]) |
| --- | --- | --- | --- | --- | --- |
| mAb 5D7.2 (antibody, human IgG2, lambda, V domains shown, fully human IgG2 lambda, Campaign 2, recombinant) VH: QVQLVQSGAEVKKPGASVKVSCKASGYTFTDYYMNWVRQAPGQGLEWMGWINPNSGGTKYAQKFQGRVTMTRDTSIRTAYMELSRLRSDDTAVYYCAREYGGNSDWFDPWGQGTLVTVSS VL: QSVLTQPPSVSGAPGQRVTISCTGSSSNIGAGYDVHWYQQSPGTAPKLLIYGNSNRPSGVPDRFSGSKSGTSASLAITGLQAEDEADYYCQSYDNRLSDSVVIGGGTKLTVQG | 2.67 nM | 1.17 nM | 3.17 nM | 0.8 nM | 0.483 nM |
| mAb 5B5.1 (antibody, human IgG2, lambda, V domains shown, fully human IgG2 lambda, Campaign 2, recombinant; same chains as 5B5.2) VH: QVQLVQSGAEVKKPGASVKVSCKASGYTFTDYYINWVRQAPGQGLEWMGWINPNSGGTDYAQKFQGRVTMTRDTSIRTAYMELNRLTSDDTAVYYCAREYGGYEDWFDPWGQGTLVTVSS VL: QSVLTQPPSVSGAPGQRVTISCTGSNSNIGAGFDVHWYQQLPGTVPKLLIYGNNNRPSGVPDRFSGSKSGTSASLAITGLQAEDEADYYCQSYDSRLTVFGGGTKLTVLG | 0.8 nM | 42.9 nM | 1.34 nM | 1.14 nM | 0.735 nM |
| mAb 5H3.1 (antibody, human IgG2, lambda, V domains shown, fully human IgG2 lambda, Campaign 2, recombinant) VH: QVQLVQSGAEVKKPGASVKVSCKASGYTFTDYYMNWVRQAPGQGLEWMGWINPNSGGTKYAQKFQGRVTMTRDTSIRTAYMELSRLRSDDTAVYYCAREYGGNSDWFDPWGQGTLVTVSS VL: QSVLTQPPSVSGAPGQRVTISCTGSSSNIGAGYDVHWYQQLPGTAPKLLIYGNSNRPSGVPDRFSGSKSGTSASLAITGLQAEDEADYYCQSYDNRLSDSVVIGGGTKLAVQG | 0.1 nM | 2.55 nM | 0.87 nM | 1.59 nM | 0.649 nM |
